This test has as its target p38α (UniProt P47811). As to the kind of experiment: ITC. As to conditions: reference: native TAB1 (1-438); sites S423.

In the case of “TAB1 1-438 (from UniProt Q8CF89) pS423TAB1 (1-438), genetically encoded phosphoserine”, the “binding against the reference” value is reported as “same”.

The values above are taken from article PMC6141180.
